Key:
Peptide 733-3RE-2 = target: T1, Peptide 733-3RE-2 (Homo sapiens); test: immunostaining of cells or tissue; pre-blocking test: synthetic peptide pre-incubated with mAb785; binding of the peptide read from the loss of immunostaining of breast cancer sections; conditions: both partners purified
T1 construct: residues 42-51 of human mammaglobin-A; also called truncated peptide without PV; source: synthetic peptide
T1 chain: YKELLQEFID

[1] = target: T2, mammaglobin-A (Mam-A) on breast cancer cells and in breast cancer tissue (Homo sapiens, UniProt Q13296); test: immunostaining of cells or tissue; ZR75.1 cells and tumor slides (GFP in the cytoplasm) fixed with cold methanol/acetone, mAb then AF594-labeled anti-mouse IgG, confocal microscopy; conditions: one partner purified
T2 construct: mammaglobin-A, endogenous in human breast cancer cells and tissue; Cells were fixed with cold methanol/acetone before staining; also called membrane-associated Mam-A; source: endogenous, breast cancer cell lines (ZR75.1, MCF-7, SKBR3, MDA-MB-231) and breast cancer tissue sections
T2 sequence (Q13296 19-93): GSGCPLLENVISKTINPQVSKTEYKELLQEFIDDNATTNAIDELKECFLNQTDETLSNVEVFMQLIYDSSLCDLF

[2] = target: T3, human mammaglobin-A (Mam-A) protein, antigen of the ELISA and SPR (Homo sapiens, UniProt Q13296); test: ELISA; indirect ELISA of the mAbs on Mam-A
T3 construct: mammaglobin-A, human
T3 sequence (Q13296 19-93): as above

Measured: binding result

B1: mAb785 (antibody, V domains shown)
VH: EVKLVESGGGLVKPGGSLKLSCAASGFTLSNHGMSWVRQTSEKRLEWVASISIRGNTYYLDSVEGRFTISRDDARNILYLQMSGLRSEDTAIYYCTYFTSVVWGQGTTLTVSS
VL: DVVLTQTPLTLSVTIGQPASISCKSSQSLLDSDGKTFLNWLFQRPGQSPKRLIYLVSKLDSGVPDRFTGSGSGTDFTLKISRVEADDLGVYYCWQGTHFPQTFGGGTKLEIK
notes: Whole monoclonal antibody raised against human Mam-A; detected with anti-mouse IgG secondary antibodies, so probably a mouse IgG; also called anti-Mam-A mAb785
binds: all assays above
